Data on one substance can be found in article PMC10844294.

In the assay the target is 17T2 mAb de-glycosylated with PNGase F (human). The assay can be described thus: SPR.
17T2 mAb de-glycosylated with PNGase F (human), sequence (heavy, as listed by the source, chain 1 of 2): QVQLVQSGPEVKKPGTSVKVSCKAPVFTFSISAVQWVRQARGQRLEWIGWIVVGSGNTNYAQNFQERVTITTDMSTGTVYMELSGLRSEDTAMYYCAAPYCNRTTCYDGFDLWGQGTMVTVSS
17T2 mAb de-glycosylated with PNGase F (human), sequence (light, as listed by the source, chain 2 of 2): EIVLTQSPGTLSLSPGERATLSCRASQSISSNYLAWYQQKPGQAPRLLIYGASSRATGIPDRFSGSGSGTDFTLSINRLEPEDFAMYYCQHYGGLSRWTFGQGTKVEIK

In the case of “SARS-CoV-2 spike receptor binding domain, ancestral WH1 (from UniProt P0DTC2 319-541) (domain or fragment)”, the Kd (as a rule, the concentration at which binding is half-saturated) was determined as 0.0749 nM; the koff (as a rule, a measure of how fast the partners let go of each other) was 0.00013 s⁻¹; the on-rate constant (kon) (commonly the rate constant with which the complex forms) came out at 1.74e+06 M⁻¹ s⁻¹.
